Experimental data from publication PMC4303301.

Tests used:
purified protein [1] = substrate: O=P(O)(O)OC[C@@H](O)[C@@H](O)[C@@H](O)CO; assay: purified protein; conditions: 50 mM Tris-HCl pH 7.5, 1 mM MgCl2, 25 °C
purified protein [2] = substrate: O=P(O)(O)OC[C@H](O)[C@H](O)[C@H](O)CO; assay: purified protein; conditions: 50 mM Tris-HCl pH 7.5, 1 mM MgCl2, 25 °C

B1: EFI-501083; putative 5-amino-6-(5-phospho-D-ribitylamino) uracil phosphatase (Bacteroides thetaiotaomicron VPI-5482) (protein)
chain: MIKNIVFDFGGVIVDIDRDKAVQAFIKLGLADADTRLDKYHQTGIFQELEEGKLSADEFRKQLGDLCGRELTMEETKQAWLGFFNEVDLRKLDYILGLRKSYHVYLLSNTNPFVMSWACSPEFSSEGKPLNDYCDKLYLSYQLGHTKPAPEIFDFMIKDSHVIPSETLFVDDGSSNIHIGKELGFETFQPENGADWRQELTVILNS
For B1, the Km (purified protein [1]) was 1080 ± 140 µM, the kcat (purified protein [1]) was 1.5 ± 0.1 s⁻¹ and the kcat/Km (purified protein [1]) was 1400 M⁻¹ s⁻¹. It also gave a Km (purified protein [2]) of 1030 ± 180 µM, a kcat (purified protein [2]) of 1.8 ± 0.1 s⁻¹ and a kcat/Km (purified protein [2]) of 1700 M⁻¹ s⁻¹.
